In patent US20150344570A1 (published 2015):

T1: human FcγRIIb extracellular domain with C-terminal His tag (human, UniProt P31994 43-217)
T1 construct: extracellular domain; also called FcgRIIb; 2b; not shown: His tag attached to the C terminus
T1 sequence (looked up): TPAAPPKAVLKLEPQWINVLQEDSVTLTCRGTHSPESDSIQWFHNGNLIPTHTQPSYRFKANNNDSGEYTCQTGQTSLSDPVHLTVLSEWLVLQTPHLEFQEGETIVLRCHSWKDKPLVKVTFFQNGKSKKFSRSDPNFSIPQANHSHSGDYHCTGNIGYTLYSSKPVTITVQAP

T2: FcγRIIb (human, UniProt P31994 43-217)
T2 construct: extracellular domain; also called 2b; not shown: His tag at the C terminus
T2 sequence (looked up): T1 sequence (looked up)

T3: FcγRIIa H (human, UniProt P12318 34-217)
T3 construct: extracellular domain; also called FcγRIIa type H; 2aH; not shown: His tag at the C terminus
T3 sequence (looked up): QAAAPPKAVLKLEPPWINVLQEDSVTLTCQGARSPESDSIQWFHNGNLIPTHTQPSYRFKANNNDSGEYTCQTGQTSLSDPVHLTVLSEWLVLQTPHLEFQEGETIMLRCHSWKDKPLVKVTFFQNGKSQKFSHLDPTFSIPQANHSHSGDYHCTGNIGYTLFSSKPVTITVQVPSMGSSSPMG

B1: GpH7-B3 variant L328_07I/GpL16-k0 (Ho Ab) (antibody, human IgG1, kappa)
heavy: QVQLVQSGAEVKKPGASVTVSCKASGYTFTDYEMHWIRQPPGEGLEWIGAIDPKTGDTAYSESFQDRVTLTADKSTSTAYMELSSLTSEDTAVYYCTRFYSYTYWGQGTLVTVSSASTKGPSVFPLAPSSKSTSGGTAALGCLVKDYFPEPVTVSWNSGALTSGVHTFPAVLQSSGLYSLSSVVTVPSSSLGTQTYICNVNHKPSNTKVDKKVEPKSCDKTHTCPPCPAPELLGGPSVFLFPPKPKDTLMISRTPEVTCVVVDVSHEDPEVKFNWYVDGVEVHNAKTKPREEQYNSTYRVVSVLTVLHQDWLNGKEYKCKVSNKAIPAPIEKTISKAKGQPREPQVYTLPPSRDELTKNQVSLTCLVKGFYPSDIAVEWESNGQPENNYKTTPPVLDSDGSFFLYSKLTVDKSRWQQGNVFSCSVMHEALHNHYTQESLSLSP
light: DIVMTQSPLSLPVTPGEPASISCQASESLVHSNRNTYLHWYLQKPGQSPQLLIYKVSNRFSGVPDRFSGSGSGTDFTLKISRVEAEDVGVYYCSQNTHVPPTFGQGTKVEIERTVAAPSVFIFPPSDEQLKSGTASVVCLLNNFYPREAKVQWKVDNALQSGNSQESVTEQDSKDSTYSLSSTLTLSKADYEKHKVYACEVTHQGLSSPVTKSFNRGEC
notes: Anti-glypican-3 IgG1; mutation in both H chains; also called L328I homodimerized antibody
B2: GpH7-B3 variant L328_06M/GpL16-k0 (Ho Ab) (antibody, human IgG1, kappa)
heavy: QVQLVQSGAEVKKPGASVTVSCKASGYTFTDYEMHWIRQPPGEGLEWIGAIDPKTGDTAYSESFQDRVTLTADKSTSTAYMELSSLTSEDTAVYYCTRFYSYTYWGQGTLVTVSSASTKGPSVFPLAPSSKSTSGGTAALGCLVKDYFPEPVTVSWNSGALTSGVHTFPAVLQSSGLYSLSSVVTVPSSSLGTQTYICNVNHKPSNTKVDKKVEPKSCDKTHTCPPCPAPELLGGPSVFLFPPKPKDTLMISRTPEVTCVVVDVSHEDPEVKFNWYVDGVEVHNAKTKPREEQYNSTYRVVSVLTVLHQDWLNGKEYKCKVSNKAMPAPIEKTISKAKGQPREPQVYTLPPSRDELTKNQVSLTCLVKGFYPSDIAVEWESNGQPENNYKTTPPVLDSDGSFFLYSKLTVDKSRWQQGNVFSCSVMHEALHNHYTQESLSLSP
light: B1 light
notes: Anti-glypican-3 IgG1; mutation in both H chains; also called L328M homodimerized antibody
B3: GpH7-A5/GpH7-B3 variant Y300_06M/GpL16-k0 (antibody, human IgG1, kappa)
heavy 1: not shown
heavy 2: not shown
light: B1 light
notes: Heterodimerized IgG1; mutation in the GpH7-B3 chain only; also called He Ab
B4: GpH7-A5/GpH7-B3 variant T335_06M/GpL16-k0 (antibody, human IgG1, kappa)
heavy 1: not shown
heavy 2: not shown
light: B1 light
notes: as for B3
B5: GpH7-A5/GpH7-B3 variant Y296_09D/GpL16-k0 (antibody, human IgG1, kappa)
heavy 1: not shown
heavy 2: not shown
light: B1 light
notes: as for B3
B6: GpH7-A5/GpH7-B3 variant S324_04F/GpL16-k0 (antibody, human IgG1, kappa)
heavy 1: not shown
heavy 2: not shown
light: B1 light
notes: as for B3
B7: GpH7-B3 variant K334_19Q/GpL16-k0 (Ho Ab) (antibody, human IgG1, kappa)
heavy: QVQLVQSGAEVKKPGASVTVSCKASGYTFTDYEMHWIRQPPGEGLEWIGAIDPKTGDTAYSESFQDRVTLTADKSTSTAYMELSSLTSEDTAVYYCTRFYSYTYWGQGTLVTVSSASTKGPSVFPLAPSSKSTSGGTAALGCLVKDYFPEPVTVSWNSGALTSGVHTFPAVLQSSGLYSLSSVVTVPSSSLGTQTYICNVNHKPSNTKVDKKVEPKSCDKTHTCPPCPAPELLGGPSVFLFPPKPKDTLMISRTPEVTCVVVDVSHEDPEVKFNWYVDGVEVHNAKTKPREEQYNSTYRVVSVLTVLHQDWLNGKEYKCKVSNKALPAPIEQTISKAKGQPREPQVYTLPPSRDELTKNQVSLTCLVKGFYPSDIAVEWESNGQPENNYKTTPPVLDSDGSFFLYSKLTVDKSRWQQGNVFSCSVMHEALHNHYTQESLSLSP
light: B1 light
notes: Anti-glypican-3 IgG1; mutation in both H chains; also called K334Q homodimerized antibody
B8: GpH7-A5/GpH7-B3 variant I336_03V/GpL16-k0 (antibody, human IgG1, kappa)
heavy 1: not shown
heavy 2: not shown
light: B1 light
notes: as for B3
B9: GpH7-A5/GpH7-B3 variant Y296_18N/GpL16-k0 (antibody, human IgG1, kappa)
heavy 1: not shown
heavy 2: not shown
light: B1 light
notes: as for B3
B10: GpH7-A5/GpH7-B3 variant T335_05P/GpL16-k0 (antibody, human IgG1, kappa)
heavy 1: not shown
heavy 2: not shown
light: B1 light
notes: as for B3
B11: GpH7-B3 variant K334_18N/GpL16-k0 (Ho Ab) (antibody, human IgG1, kappa)
heavy: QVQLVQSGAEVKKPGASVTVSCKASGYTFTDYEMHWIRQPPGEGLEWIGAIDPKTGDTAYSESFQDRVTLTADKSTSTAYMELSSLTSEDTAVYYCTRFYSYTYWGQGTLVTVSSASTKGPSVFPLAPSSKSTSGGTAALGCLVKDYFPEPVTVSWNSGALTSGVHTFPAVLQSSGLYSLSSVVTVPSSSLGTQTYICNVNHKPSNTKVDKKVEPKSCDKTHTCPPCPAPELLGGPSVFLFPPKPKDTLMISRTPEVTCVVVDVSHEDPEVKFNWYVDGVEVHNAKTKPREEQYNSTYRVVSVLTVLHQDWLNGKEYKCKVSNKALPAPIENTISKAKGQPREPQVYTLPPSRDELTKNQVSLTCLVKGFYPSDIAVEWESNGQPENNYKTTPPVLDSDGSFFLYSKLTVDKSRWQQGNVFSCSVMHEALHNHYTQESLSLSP
light: B1 light
notes: Anti-glypican-3 IgG1; mutation in both H chains; also called K334N homodimerized antibody
B12: GpH7-B3 variant L328_04F/GpL16-k0 (Ho Ab) (antibody, human IgG1, kappa)
heavy: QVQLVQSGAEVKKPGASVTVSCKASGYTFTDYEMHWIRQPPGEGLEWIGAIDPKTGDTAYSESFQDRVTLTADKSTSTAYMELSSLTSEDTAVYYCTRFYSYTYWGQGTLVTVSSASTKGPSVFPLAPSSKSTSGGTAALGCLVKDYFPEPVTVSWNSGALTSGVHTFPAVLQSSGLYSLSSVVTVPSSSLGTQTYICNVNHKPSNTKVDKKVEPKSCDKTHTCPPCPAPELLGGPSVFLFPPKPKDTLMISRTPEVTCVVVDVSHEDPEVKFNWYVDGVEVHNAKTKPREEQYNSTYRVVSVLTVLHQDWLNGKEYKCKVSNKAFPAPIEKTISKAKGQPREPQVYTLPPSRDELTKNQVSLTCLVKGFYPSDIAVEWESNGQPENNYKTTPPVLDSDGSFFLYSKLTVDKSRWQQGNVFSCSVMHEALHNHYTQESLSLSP
light: B1 light
notes: Anti-glypican-3 IgG1; mutation in both H chains; also called L328F homodimerized antibody
B13: GpH7-A5/GpH7-B3 variant K326_12R/GpL16-k0 (antibody, human IgG1, kappa)
heavy 1: not shown
heavy 2: not shown
light: B1 light
notes: as for B3
B14: GpH7-B3 variant P271_01G/GpL16-k0 (Ho Ab) (antibody, human IgG1, kappa)
heavy: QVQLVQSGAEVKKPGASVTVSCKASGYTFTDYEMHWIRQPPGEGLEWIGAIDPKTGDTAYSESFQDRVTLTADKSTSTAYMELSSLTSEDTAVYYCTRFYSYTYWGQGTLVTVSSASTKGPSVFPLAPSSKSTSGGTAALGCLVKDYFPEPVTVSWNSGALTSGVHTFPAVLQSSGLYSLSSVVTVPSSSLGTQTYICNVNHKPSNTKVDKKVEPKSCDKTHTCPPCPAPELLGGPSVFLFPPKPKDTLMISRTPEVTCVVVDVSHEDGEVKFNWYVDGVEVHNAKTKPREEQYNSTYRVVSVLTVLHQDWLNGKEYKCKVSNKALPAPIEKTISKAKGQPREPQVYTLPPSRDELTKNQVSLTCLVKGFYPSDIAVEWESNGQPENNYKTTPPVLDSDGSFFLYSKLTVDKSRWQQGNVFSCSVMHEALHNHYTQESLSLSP
light: B1 light
notes: Anti-glypican-3 IgG1; mutation in both H chains; also called P271G homodimerized antibody
B15: GpH7-A5/GpH7-B3 variant I336_10E/GpL16-k0 (antibody, human IgG1, kappa)
heavy 1: not shown
heavy 2: not shown
light: B1 light
notes: as for B3
B16: GpH7-A5/GpH7-B3 variant S324_02A/GpL16-k0 (antibody, human IgG1, kappa)
heavy 1: not shown
heavy 2: not shown
light: B1 light
notes: as for B3
B17: GpH7-B3 variant K334_16H/GpL16-k0 (Ho Ab) (antibody, human IgG1, kappa)
heavy: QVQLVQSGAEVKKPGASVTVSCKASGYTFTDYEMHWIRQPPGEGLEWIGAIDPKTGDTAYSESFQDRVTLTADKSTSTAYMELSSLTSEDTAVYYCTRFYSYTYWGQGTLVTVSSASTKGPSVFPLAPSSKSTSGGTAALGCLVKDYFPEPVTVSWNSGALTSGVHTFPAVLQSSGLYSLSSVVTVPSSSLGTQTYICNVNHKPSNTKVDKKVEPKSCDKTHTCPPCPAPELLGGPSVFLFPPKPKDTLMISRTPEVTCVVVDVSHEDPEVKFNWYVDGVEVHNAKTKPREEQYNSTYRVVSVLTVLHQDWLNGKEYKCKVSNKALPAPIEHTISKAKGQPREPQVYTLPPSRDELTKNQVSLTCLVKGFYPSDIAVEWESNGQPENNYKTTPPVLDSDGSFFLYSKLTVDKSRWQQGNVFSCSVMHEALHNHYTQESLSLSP
light: B1 light
notes: Anti-glypican-3 IgG1; mutation in both H chains; also called K334H homodimerized antibody
B18: GpH7-A5/GpH7-B3 variant Y296_04F/GpL16-k0 (antibody, human IgG1, kappa)
heavy 1: not shown
heavy 2: not shown
light: B1 light
notes: as for B3
B19: GpH7-B3 variant K334_15Y/GpL16-k0 (Ho Ab) (antibody, human IgG1, kappa)
heavy: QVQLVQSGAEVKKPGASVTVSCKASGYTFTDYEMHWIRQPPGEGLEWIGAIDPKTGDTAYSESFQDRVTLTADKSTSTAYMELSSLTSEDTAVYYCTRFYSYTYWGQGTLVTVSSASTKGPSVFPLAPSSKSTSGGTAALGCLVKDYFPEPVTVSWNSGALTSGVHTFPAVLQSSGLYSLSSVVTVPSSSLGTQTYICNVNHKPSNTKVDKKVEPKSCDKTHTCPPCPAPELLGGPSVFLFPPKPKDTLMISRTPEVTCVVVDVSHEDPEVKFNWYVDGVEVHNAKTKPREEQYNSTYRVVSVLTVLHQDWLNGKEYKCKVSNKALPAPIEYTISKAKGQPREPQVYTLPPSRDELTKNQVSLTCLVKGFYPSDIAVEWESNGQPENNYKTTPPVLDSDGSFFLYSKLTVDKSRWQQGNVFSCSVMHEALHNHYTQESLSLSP
light: B1 light
notes: Anti-glypican-3 IgG1; mutation in both H chains; also called K334Y homodimerized antibody
B20: GpH7-B3 variant P271_08L/GpL16-k0 (Ho Ab) (antibody, human IgG1, kappa)
heavy: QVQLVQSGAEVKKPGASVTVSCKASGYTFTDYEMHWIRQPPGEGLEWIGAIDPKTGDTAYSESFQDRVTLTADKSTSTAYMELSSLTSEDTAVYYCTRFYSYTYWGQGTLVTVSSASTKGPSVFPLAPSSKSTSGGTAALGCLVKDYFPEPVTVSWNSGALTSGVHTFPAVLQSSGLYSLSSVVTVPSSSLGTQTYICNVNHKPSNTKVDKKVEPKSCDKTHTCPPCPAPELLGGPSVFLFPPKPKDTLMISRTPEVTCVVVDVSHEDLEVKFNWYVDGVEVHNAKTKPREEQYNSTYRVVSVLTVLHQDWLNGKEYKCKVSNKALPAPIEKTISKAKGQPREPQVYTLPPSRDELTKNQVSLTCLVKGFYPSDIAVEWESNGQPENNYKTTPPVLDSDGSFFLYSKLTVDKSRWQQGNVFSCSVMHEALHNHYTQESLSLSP
light: B1 light
notes: Anti-glypican-3 IgG1; mutation in both H chains; also called P271L homodimerized antibody

What was measured:
[1] = molecular target: T1, human FcγRIIb extracellular domain with …; assay: SPR (Biacore T100), antibody captured on antigen peptide chip, FcγRIIb as analyte; relative binding
Procedure: (§1) Analysis of interaction between objective antibody and the FcγR was carried out using Biacore T100 (GE Healthcare). HBS-EP+ (GE Healthcare) was used as the running buffer, and the measurement temperature was set to 25° C. Chips produced by immobilizing the antigen peptide by the amine coupling method to a Series S Sencor Chip CM5 (GE Healthcare), or alternatively, chips produced by allowing preliminarily biotinylated antigen peptides to interact with and immobilize onto a Series S Sensor Chip SA (certified) (GE Healthcare) were used. Antibodies of interest were captured onto an antigen peptide-immobilized chip, and allowed to interact to each FcγR diluted with running buffer. To regenerate and repeatedly use the chip, the antibodies captured on the chip were washed off by reacting 10 mM glycine-HCl, pH 1.5.

FcγRIIb = molecular target: T2, FcγRIIb; assay: SPR (Biacore), antibody captured, FcγR as analyte; binding relative to GpH7-A5/GpH7-B3/GpL16-k0 = 100
Procedure: (§2) The heterodimerized antibodies He Abs in which one of the H chains was introduced with an alteration were assayed for their binding activities to each activating FcγR and inhibitory FcγR according to the method described in Example 4. […] The activating FcγRs in FIGS. 26, 27, 28, and 29 are FcγRIa, FcγRIIa (R), FcγRIIa (H), and FcγRIIIa, respectively.
as §1

FcγRIIa H = molecular target: T3, FcγRIIa H; assay: as above
Procedure: as §2, §1

| Binder | Ho/Con_2b [1] | He/Con_2b (FcγRIIb) | He/Con_2aH (FcγRIIa H) |
| --- | --- | --- | --- |
| B1 | 188 % of control GpH7-B3/GpL16-k0 (=100) | – | – |
| B2 | 171 % of control GpH7-B3/GpL16-k0 (=100) | – | – |
| B3 | – | 84.3 % of control | 105 % of control |
| B4 | – | 99.4 % of control | 103 % of control |
| B5 | – | 98.9 % of control | 104 % of control |
| B6 | – | 89.1 % of control | 101 % of control |
| B7 | 117 % of control GpH7-B3/GpL16-k0 (=100) | – | – |
| B8 | – | 90.3 % of control | 102 % of control |
| B9 | – | 91.5 % of control | 104 % of control |
| B10 | – | 99.9 % of control | 108 % of control |
| B11 | 128 % of control GpH7-B3/GpL16-k0 (=100) | – | – |
| B12 | 241 % of control GpH7-B3/GpL16-k0 (=100) | – | – |
| B13 | – | 89.2 % of control | 101 % of control |
| B14 | 229 % of control GpH7-B3/GpL16-k0 (=100) | – | – |
| B15 | – | 89.8 % of control | 102 % of control |
| B16 | – | 78.3 % of control | 102 % of control |
| B17 | 124 % of control GpH7-B3/GpL16-k0 (=100) | – | – |
| B18 | – | 99.2 % of control | 100 % of control |
| B19 | 126 % of control GpH7-B3/GpL16-k0 (=100) | – | – |
| B20 | 113 % of control GpH7-B3/GpL16-k0 (=100) | – | – |
